Assay [1] addresses rab4a_human RAB4A (UniProt P20338).
Assay [2] has the same target. This is another data set of the same source.

Chain of rab4a_human RAB4A (P20338 whole entry): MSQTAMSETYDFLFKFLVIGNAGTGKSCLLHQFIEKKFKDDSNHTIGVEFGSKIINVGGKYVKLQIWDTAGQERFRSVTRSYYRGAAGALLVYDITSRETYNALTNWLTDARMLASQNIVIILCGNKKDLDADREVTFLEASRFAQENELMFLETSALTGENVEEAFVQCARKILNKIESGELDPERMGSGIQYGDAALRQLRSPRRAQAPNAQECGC
Chain of Protein NDRG1 (Homo sapiens), Q92597 L146P (Q92597 whole entry L146P): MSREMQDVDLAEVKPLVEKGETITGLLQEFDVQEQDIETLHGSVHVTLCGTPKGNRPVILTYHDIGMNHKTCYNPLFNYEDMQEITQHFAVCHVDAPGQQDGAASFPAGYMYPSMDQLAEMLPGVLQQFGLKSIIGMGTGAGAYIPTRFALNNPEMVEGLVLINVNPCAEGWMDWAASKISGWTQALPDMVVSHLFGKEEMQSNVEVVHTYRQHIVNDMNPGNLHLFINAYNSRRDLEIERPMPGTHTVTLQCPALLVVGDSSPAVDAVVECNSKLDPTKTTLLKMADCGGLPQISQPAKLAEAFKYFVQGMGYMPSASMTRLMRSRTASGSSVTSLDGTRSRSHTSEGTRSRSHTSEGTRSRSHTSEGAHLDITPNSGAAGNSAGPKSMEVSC
Chain of Protein NDRG1 (Homo sapiens), Q92597 R234Q (Q92597 whole entry R234Q): as the sequence (Q92597 whole entry L146P) above, with P146L, R234Q counted along it

Consider “Protein NDRG1 (Homo sapiens), Q92597 L146P”, for which the “effect of a mutation on the interaction” value with rab4a_human RAB4A [1] was “decreasing interaction strength”; with rab4a_human RAB4A [2], “with no effect”.

Regarding “Protein NDRG1 (Homo sapiens), Q92597 R234Q”, the “effect of a mutation on the interaction” value in the assay with rab4a_human RAB4A [2] was “with no effect”.
